± gives the uncertainty stated by the source.
Test: self-splicing fitness, log relative to wild type (ln ratio); higher = more splicing; Tetrahymena group I intron in knt gene, E. coli kanamycin selection, DiMSum; sequences stand for … in CUCUCU…GGAGGGAAAAGUUAUCAGGCAUGCACCUGGUAGCUAGUCUUUAAACCAAUAGAUUGCAUCGGUUUAAAAGGCAAGACCGUCAAAUUGCGGGAAAGGGGUCAACAGCCGUUCAGUACCAAGUCUCAGGGGAAACUUUGAGAUGGCCUUGCAAAGGGUAUGGUAAUAAGCUGACGGACAUGGUCCUAACCACGCAGCCAAGUCCUAAGUCAACAGAUCUUCUGUUGAUAUGGAUGCAGUUCACAGACUAAAUGUCGGUCGGGGAAGAUGUAUUCUUCUCAUAAGAUAUAGUCGGACCUCUCCUUAAUGGGAGCUAGCGGAUGAAGUGAUGCAACACUGGAGCCGCUGGGAACUAAUUUGUAUGCGAAAGUAUAUUGAUUAGUUUUGGAGUACUCGUGGUCG
In short: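 The eight P1ex-region nucleotides of an intron in the knt kanamycin-resistance gene on pET-22b(+) were all randomised and the library put into E. coli BL21(DE3). Six replicate transformations were grown overnight at 37°C or 30°C on LB agar with or without 25 μg/mL kanamycin, together with 100 μg/mL carbenicillin, 50 μM IPTG and 0.2% rhamnose. Colonies were pooled and amplicon-sequenced on an Illumina HiSeq 2500. Fitness from DiMSum is the error-weighted combination of wild-type-normalised replicate fold changes, kanamycin over none.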

Row | Sequence | self-splicing fitness (ln) (30 °C) | self-splicing fitness (ln) (37 °C)
1 | AAGAAGCAAUAUUACGCACA | -0.267 ± 0.082 | -0.233 ± 0.097
2 | CGGGAGCAAUAUUACGUACA | -3.72 ± 0.35 | –
3 | UCCCAGCAAUAUUACGACUG | -3.58 ± 0.2 | -3.16 ± 0.32
4 | UAGGAGCAAUAUUACGGAUU | -3.92 ± 0.25 | -2.98 ± 0.38
5 | CCAGAGCAAUAUUACGUUAG | -3.15 ± 0.097 | -1.72 ± 0.097
6 | AAAAAGCAAUAUUACGAGGU | -4.25 ± 0.29 | -3.5 ± 0.23
7 | CCACAGCAAUAUUACGCCGA | -3.67 ± 0.26 | -2.26 ± 0.17
8 | GCAUAGCAAUAUUACGCCUG | -1.22 ± 0.081 | -1.49 ± 0.1
9 | AUUAAGCAAUAUUACGUGCG | -0.862 ± 0.091 | 0.0786 ± 0.13
10 | AGGUAGCAAUAUUACGAGGU | -3.749 ± 0.029 | -2.49 ± 0.039
11 | UUGGAGCAAUAUUACGGGUA | – | -2.02 ± 0.23
12 | UUGCAGCAAUAUUACGGCUG | -3.43 ± 0.3 | -2.59 ± 0.24
13 | GCCCAGCAAUAUUACGGGAC | -4.73 ± 0.31 | -2.48 ± 0.14
14 | UUCGAGCAAUAUUACGGUAG | -3.12 ± 0.31 | -0.753 ± 0.14
15 | CUCGAGCAAUAUUACGAGCU | -3.85 ± 0.32 | –
16 | UGGUAGCAAUAUUACGAGGU | -2.63 ± 0.45 | -2.6 ± 0.35
17 | AAGUAGCAAUAUUACGCCUA | -0.227 ± 0.11 | -0.477 ± 0.12
18 | GUUGAGCAAUAUUACGUGUG | -3.65 ± 0.34 | -3.15 ± 0.32
19 | GGUUAGCAAUAUUACGGCUC | -2.05 ± 0.33 | -0.541 ± 0.46
20 | AGACAGCAAUAUUACGCACG | -2.11 ± 0.12 | -0.922 ± 0.13

Row | Sequence | self-splicing fitness (ln) (30 °C) | self-splicing fitness (ln) (37 °C)
21 | AGACAGCAAUAUUACGAGAC | – | -1.59 ± 0.37
22 | CUGAAGCAAUAUUACGGUCU | -4.07 ± 0.36 | -2.24 ± 0.27
23 | GCUCAGCAAUAUUACGCACG | -3.19 ± 0.31 | -1.02 ± 0.24
24 | UUGUAGCAAUAUUACGAGUG | -1.69 ± 0.14 | -0.408 ± 0.12
25 | CGUUAGCAAUAUUACGGCAG | -0.122 ± 0.1 | 0.3 ± 0.12
26 | AGAGAGCAAUAUUACGUAUA | – | -1.02 ± 0.32
27 | UUCCAGCAAUAUUACGGUAA | -0.236 ± 0.087 | -0.0663 ± 0.086
28 | UUGCAGCAAUAUUACGCCUC | -2.47 ± 0.45 | -0.787 ± 0.37
29 | UGUGAGCAAUAUUACGACAG | -1.7 ± 0.1 | -1.59 ± 0.12
30 | UAUGAGCAAUAUUACGCUUA | -3.19 ± 0.41 | -1.47 ± 0.26
31 | UUUCAGCAAUAUUACGUUUG | -1.91 ± 0.086 | -1.12 ± 0.1
32 | ACCAAGCAAUAUUACGACGA | -1.11 ± 0.12 | -0.623 ± 0.13
33 | GAGGAGCAAUAUUACGAGGU | -2.71 ± 0.24 | -3.09 ± 0.25
34 | UACAAGCAAUAUUACGUCUA | -0.798 ± 0.049 | 0.00361 ± 0.068
35 | CGCUAGCAAUAUUACGUUGA | -3.06 ± 0.17 | -2.38 ± 0.14
36 | GAACAGCAAUAUUACGGCCC | -0.734 ± 0.27 | -0.265 ± 0.28
37 | ACGUAGCAAUAUUACGAGCA | -0.664 ± 0.2 | -1.82 ± 0.19
38 | CUGAAGCAAUAUUACGAAAU | -3.78 ± 0.27 | -2.38 ± 0.25
39 | AGGAAGCAAUAUUACGUGAA | -2.53 ± 0.35 | -1.97 ± 0.24
